Where “and” joins values, the source holds several entries; their conditions need not be identical. Identical values can stand only once. Where no end group is shown, it is not given here. cellulose membrane = derivatized cellulose membrane (SPOTs) solid support, attached to the peptide C-terminus
Experiments:
[1] = target: T1, human granulocyte-macrophage colony stimulating factor (GM-CSF) (human, UniProt P04141 18-144); test: BIACORE
T1 construct: The assays used recombinant human GM-CSF (in-house, PeproTech, or PE-labeled from R&D Systems); also called hGM-CSF; human GM-CSF
T1 sequence (P04141 18-144): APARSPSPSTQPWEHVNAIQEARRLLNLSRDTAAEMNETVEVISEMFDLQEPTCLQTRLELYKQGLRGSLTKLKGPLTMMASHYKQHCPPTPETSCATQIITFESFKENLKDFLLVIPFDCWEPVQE

[2] = target: T2, human GM-CSF overlapping 12-mer peptide #23; test: SPOTs peptide membrane, 1 mg/ml purified 10G9
T2 construct: Only 'possibly' recognized by G9
T2 peptide: KENLKDFLLVIP-{cellulose membrane}

[3] = target: T3, SEB (UniProt P01552 28-266); test: antigen specific ELISA (subsequent study, data not shown)
T3 sequence: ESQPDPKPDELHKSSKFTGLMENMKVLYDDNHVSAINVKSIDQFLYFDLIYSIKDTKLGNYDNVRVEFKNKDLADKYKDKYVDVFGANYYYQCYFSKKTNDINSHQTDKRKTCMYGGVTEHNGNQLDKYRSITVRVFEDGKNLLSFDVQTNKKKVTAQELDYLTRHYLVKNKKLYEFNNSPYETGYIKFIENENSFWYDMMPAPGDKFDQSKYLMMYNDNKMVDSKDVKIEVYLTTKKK

[4] = target: T4, HEL (UniProt P00698 19-147); test: as above
T4 sequence (P00698 19-147): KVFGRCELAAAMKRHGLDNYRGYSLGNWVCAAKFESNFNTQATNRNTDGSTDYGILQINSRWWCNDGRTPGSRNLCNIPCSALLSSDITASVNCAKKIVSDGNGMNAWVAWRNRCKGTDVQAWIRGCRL

[5] = target: T5, human mesothelin (human, UniProt Q13421 296-598, limits assumed); test: as above
T5 construct: also called human Mesothilin
T5 sequence (Q13421 other isoform, or with tags, fused parts or gaps limits assumed): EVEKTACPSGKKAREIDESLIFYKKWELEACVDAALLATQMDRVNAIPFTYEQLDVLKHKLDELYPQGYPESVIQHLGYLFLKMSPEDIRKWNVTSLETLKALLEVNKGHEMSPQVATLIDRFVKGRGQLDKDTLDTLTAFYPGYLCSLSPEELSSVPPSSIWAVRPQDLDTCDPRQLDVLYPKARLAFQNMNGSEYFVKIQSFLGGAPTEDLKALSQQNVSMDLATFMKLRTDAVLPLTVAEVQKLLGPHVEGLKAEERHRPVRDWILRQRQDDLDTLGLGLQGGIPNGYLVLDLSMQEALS

[6] = target: T6, human GM-CSF overlapping 12-mer peptide, SEQ ID NO:36 (human); test: SPOT peptide membrane probed with G9, HRP goat anti-human IgG, ECL
T6 construct: also called peptide #13
T6 peptide: TRLELYKQGLRG-{cellulose membrane}

[7] = target: T7, human GM-CSF overlapping 12-mer peptide, SEQ ID NO:35 (human); test: as above
T7 construct: also called peptide #6
T7 peptide: ARRLLNLSRDTA-{cellulose membrane}

[8] = target: T8, human GM-CSF overlapping 12-mer peptide, SEQ ID NO:38 (human); test: as above
T8 construct: also called peptide #15
T8 peptide: RGSLTKLKGPLT-{cellulose membrane}

[9] = target: T9, human GM-CSF overlapping 12-mer peptide, SEQ ID NO:37 (human); test: as above
T9 construct: also called peptide #14
T9 peptide: YKQGLRGSLTKL-{cellulose membrane}

[10] = target: T1, human granulocyte-macrophage colony …; test: apparent affinity, method not given
[11] = target: T10, hIL-1a (human, UniProt P01583 113-271); test: antigen panel ELISA, antigen coated on the plate, O.D. 450
T10 sequence (looked up): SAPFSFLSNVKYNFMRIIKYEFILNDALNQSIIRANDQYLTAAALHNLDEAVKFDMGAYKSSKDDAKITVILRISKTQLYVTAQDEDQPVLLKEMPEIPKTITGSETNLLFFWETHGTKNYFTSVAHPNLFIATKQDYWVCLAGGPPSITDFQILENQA

[12] = target: T11, h IL-3 (human, UniProt P08700 20-152); test: as above
T11 sequence (looked up): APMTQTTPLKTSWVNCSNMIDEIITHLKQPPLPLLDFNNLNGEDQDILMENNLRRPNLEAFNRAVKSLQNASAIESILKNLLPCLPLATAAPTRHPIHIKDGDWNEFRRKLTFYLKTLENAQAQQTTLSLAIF

[13] = target: IL-6 (Homo sapiens (Human), UniProt P05231 30-212); test: as above
[14] = target: T12, murine GM-CSF (murine, UniProt P01587 18-141); test: as above
T12 construct: also called mGM-CSF
T12 sequence (looked up): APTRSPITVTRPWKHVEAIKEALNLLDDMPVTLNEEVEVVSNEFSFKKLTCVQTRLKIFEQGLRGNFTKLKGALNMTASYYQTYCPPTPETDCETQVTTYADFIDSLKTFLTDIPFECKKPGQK

[15] = target: hIL-13 (human, UniProt P35225 35-146, limits assumed); test: as above
hIL-13, sequence (P35225 35-146 limits assumed): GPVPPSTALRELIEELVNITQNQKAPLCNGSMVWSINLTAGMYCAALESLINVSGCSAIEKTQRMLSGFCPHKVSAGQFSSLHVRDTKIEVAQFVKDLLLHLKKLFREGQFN

[16] = target: T13, h IL-4 (human, UniProt P05112 25-153); test: as above
T13 sequence (looked up): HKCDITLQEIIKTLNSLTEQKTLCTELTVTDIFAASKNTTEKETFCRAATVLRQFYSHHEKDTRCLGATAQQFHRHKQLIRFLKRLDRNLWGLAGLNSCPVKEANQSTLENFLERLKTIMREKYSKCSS

[17] = target: h IL-2 (human, UniProt P60568 21-153); test: as above
h IL-2, sequence (P60568 21-153 limits assumed): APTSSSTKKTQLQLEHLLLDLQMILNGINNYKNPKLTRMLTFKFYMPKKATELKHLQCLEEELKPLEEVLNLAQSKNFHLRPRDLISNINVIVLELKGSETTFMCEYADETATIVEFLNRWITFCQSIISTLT

[18] = target: T14, h IL-5 (human, UniProt P05113 20-134); test: as above
T14 sequence (looked up): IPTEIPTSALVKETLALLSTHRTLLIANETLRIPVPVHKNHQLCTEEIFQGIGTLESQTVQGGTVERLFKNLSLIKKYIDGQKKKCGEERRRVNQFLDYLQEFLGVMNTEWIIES

[19] = target: T15, BSA (bovine, UniProt P02769 25-607); test: as above
T15 construct: also called bovine serum albumin
T15 sequence (P02769 25-607 limits assumed): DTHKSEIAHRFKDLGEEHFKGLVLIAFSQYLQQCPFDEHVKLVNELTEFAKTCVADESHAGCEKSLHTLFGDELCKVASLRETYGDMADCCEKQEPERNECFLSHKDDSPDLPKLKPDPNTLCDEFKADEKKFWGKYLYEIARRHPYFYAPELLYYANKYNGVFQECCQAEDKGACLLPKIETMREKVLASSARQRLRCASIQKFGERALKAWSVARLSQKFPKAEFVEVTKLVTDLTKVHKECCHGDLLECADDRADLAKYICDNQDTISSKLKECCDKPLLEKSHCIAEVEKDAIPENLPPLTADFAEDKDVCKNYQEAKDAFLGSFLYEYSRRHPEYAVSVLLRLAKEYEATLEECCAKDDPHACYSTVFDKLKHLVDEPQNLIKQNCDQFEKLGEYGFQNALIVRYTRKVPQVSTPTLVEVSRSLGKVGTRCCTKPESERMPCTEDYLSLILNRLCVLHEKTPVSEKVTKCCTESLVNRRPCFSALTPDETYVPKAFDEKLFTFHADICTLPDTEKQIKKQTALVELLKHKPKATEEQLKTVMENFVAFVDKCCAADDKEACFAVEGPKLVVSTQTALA

[20] = target: T3, SEB; test: antigen-specific ELISA (subsequent study, data not shown)
[21] = target: T4, HEL; test: as above
[22] = target: T5, human mesothelin; test: as above

B1: anti-GM-CSF human IgG1 monoclonal antibody G9 (antibody, V domains shown)
VH: EVQLVESGGGLVQPGGSLRLSCAASGFTFSRHWMHWLRQVPGKGPVWVSRINGAGTSITYADSVRGRFTISRDNANNTLFLQMNSLRADDTALYFCARANSVWFRGLFDYWGQGTPVTVSS
VL: EIVLTQSPVTLSVSPGERVTLSCRASQSVSTNLAWYQQKLGQGPRLLIYGASTRATDIPARFSGSGSETEFTLTISSLQSEDFAVYYCQQYDKWPDTFGQGTKLEIKR
notes: Fully human IgG1 kappa made by a hybridoma from B cells of a PAP patient; also called 10G9; 10G9.1
[1]
  Kd: 0.0109 nM and 0.011 nM to 0.017 nM (2×)
  koff: 9.27e-05 s⁻¹
  kon: 8.47e+06 M⁻¹ s⁻¹
[2]
  binding result: binds
[3]
  binding result: no binding
[4]
  binding result: no binding
[5]
  binding result: no binding
[6]
  binding result: binds
[7]
  binding result: binds
[8]
  binding result: binds
[9]
  binding result: binds
[10]
  Kd: 0.014 nM

B2: anti-GM-CSF human IgG1 monoclonal antibody E10 (antibody, V domains shown)
VH: QVQLEESGGGVVQPGRSLRLSCAASGFTFTNYGMHWVRQAPGKGLEWLALISYDGNRQYYADSVKGRFTVSRDNPNNTLHLEMKSLRAEDSAIYYCARGAGVLLWFGDLSWFDPWGQGTLVTVSS
VL: DIQMTQSPSNLSASVGDRVTITCRASQNINTWLAWYQHKPGKPPKLRIYQASTLESGVPSRFSGSGSGTIFTLTISSLQPDDFGTYYCQQNNSYPYTFGQGTKLEINR
notes: Fully human IgG1 kappa made by a hybridoma from B cells of a PAP patient; also called 4E10; E10.20
[1]
  Kd: 0.87 nM and ~0.87 nM
  koff: 2.16e-05 s⁻¹
  kon: 24700 M⁻¹ s⁻¹
[11]
  binding result: no binding
[12]
  binding result: no binding
[13]
  binding result: no binding
[14]
  binding result: no binding
[15]
  binding result: no binding
[16]
  binding result: no binding
[17]
  binding result: no binding
[18]
  binding result: no binding
[19]
  binding result: no binding
[20]
  binding result: no binding
[21]
  binding result: no binding
[22]
  binding result: no binding
